Experimental data: PMC9023278

Molecular target: T1, EnrR (crystal) (Edwardsiella piscicida EIB202, UniProt A0AAQ3C0I8 1-90)
T1 sequence: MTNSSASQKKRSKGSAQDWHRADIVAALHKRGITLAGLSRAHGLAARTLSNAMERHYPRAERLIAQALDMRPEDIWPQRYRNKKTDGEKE
Assay: X-ray crystallography

B1: DNA1 (dsDNA)
DNA 1: CGAAATATCTATAGATATTTCG
DNA 2: CGAAATATCTATAGATATTTCG
B1: binds.
